Changes are numbered by the printed parent chain.
What was measured:
[1] = target: HIV-1 nucleocapsid protein (NC) (HIV-1 NL4-3) (UniProt P12493); experiment: ITC; details: ITC: 10 mM Tris-HCl pH 7.0, 140 mM KCl, 10 mM NaCl, 5 mM MgCl2, 5 mM TCEP, 30 °C; NC (120-240 µM) titrated into RNA (0.6-4 µM)
[2] = target: T1, HIV-1 nucleocapsid protein (NC) (HIV-1 NL4-3, UniProt P12493); experiment: ITC; exothermic sites, n=2.8±0.3; ITC: 10 mM Tris-HCl pH 7.0, 140 mM KCl, 10 mM NaCl, 5 mM MgCl2, 5 mM TCEP, 30 °C; NC (120-240 µM) titrated into RNA (0.6-4 µM); details: protein: recombinant; tags: none stated; hairpin, unpaired 5'-GA and AG-3' ends
[3] = target: T1, HIV-1 nucleocapsid protein (NC); experiment: ITC; endothermic sites, n=2.3±0.2; ITC: 10 mM Tris-HCl pH 7.0, 140 mM KCl, 10 mM NaCl, 5 mM MgCl2, 5 mM TCEP, 30 °C; NC (120-240 µM) titrated into RNA (0.6-4 µM); details: protein: recombinant; tags: none stated; hairpin, unpaired 5'-GA and AG-3' ends
[4] = target: T1, HIV-1 nucleocapsid protein (NC); experiment: ITC; exothermic sites, n=6.6±0.2 per dimer; ITC: 10 mM Tris-HCl pH 7.0, 140 mM KCl, 10 mM NaCl, 5 mM MgCl2, 5 mM TCEP, 30 °C; NC (120-240 µM) titrated into RNA (0.6-4 µM); details: protein: recombinant; tags: none stated; duplex dimer of 2 strands
[5] = target: T1, HIV-1 nucleocapsid protein (NC); experiment: ITC; exothermic only, n=1.2±0.1; ITC: 10 mM Tris-HCl pH 7.0, 140 mM KCl, 10 mM NaCl, 5 mM MgCl2, 5 mM TCEP, 30 °C; NC (120-240 µM) titrated into RNA (0.6-4 µM); details: protein: recombinant; tags: none stated; hairpin, blunt
[6] = target: T1, HIV-1 nucleocapsid protein (NC); experiment: ITC; exothermic only, n=1.2±0.3; ITC: 10 mM Tris-HCl pH 7.0, 140 mM KCl, 10 mM NaCl, 5 mM MgCl2, 5 mM TCEP, 30 °C; NC (120-240 µM) titrated into RNA (0.6-4 µM); details: protein: recombinant; tags: none stated; hairpin, blunt
[7] = target: T1, HIV-1 nucleocapsid protein (NC); experiment: ITC; exothermic only, n=1.8±0.1; ITC: 10 mM Tris-HCl pH 7.0, 140 mM KCl, 10 mM NaCl, 5 mM MgCl2, 5 mM TCEP, 30 °C; NC (120-240 µM) titrated into RNA (0.6-4 µM); details: protein: recombinant; tags: none stated; hairpin with single-stranded 3' GGAG region

Molecule: 5'-LΔPBS
- Kd [1]: 760 nM

Molecule: TAR-PolyA
- Kd [1]: 1320 nM

Molecule: 5'-L (5'-L344)
- Kd [1]: 880 nM

B1: ΨHP (structured_RNA)
RNA: GAUUUUGACUAGCGGAGGCUAGAAGGAGAG
- Kd [2]: 1540 ± 240 nM
- Kd [3]: 26 ± 21 nM

B2: DIS (structured_RNA)
RNA: GGCAGGACUCGGCUUGCUGAAGCGCGCACGGCAAGAGGCGAGGGGCC
- Kd [4]: 340 ± 30 nM

B3: Ψ-apical loop (structured_RNA)
RNA: GGACUAGCGGAGGCUAGUCC
- Kd [5]: 320 ± 30 nM

B4: ΨHP-stable (structured_RNA)
RNA: B1 RNA with A2G, A29C, G30C
- Kd [6]: 300 ± 150 nM

B5: Ψ-fragment (structured_RNA)
RNA: GACUAGCGGAGGCUAGAAGGAG
- Kd [7]: 450 ± 30 nM

— paper PMC7395439, “Identification of the initial nucleocapsid recognition element in the HIV-1 RNA packaging signal”
